First the molecules themselves.
B1: TL1W328.001 (K111A L123K M158Y Q167A S187L N207F) (Fc fusion, human)
chain: VYAPLRADGDKPRAHLTVVRQTPTQHFANQFPALHWEHEKGLAFTKNRMNYTNKFLLIPESGDYFIYSQVTFRGYTSECSEIRAAGRPNKPDSITVVITKVTDLYPEPTQLLMGTKSVCEVGSFWFQPIYLGAMFSLQEGDKLMVNVSDISLVDYTKEDKTFFGAFLLGGSGGSGGSVYAPLRADGDKPRAHLTVVRQTPTQHFANQFPALHWEHEKGLAFTKNRMNYTNKFLLIPESGDYFIYSQVTFRGYTSECSEIRAAGRPNKPDSITVVITKVTDLYPEPTQLLMGTKSVCEVGSFWFQPIYLGAMFSLQEGDKLMVNVSDISLVDYTKEDKTFFGAFLLGGSGGSGGSVYAPLRADGDKPRAHLTVVRQTPTQHFANQFPALHWEHEKGLAFTKNRMNYTNKFLLIPESGDYFIYSQVTFRGYTSECSEIRAAGRPNKPDSITVVITKVTDLYPEPTQLLMGTKSVCEVGSFWFQPIYLGAMFSLQEGDKLMVNVSDISLVDYTKEDKTFFGAFLL
notes: TL1A (TNFSF15), human, residues 84-251; first of three units; linker between TL1A units; second unit; third unit; combination mutant in the Fc-scTL1A format; the mutations are written on each of the three TL1A units; source: Expi293 cells, transfected, purified (mAbSelect SuRe); not shown: Fc (IgG1), N-terminal, kept
B2: TL1W331.001 (K111A L123K Q167A S187L E190F N207F) (Fc fusion, human)
chain: B1 chain with Y75M, E107F, Y252M, E284F, Y429M, E461F
notes: TL1A (TNFSF15), human, residues 84-251; first of three units; linker between TL1A units; second unit; third unit; combination mutant in the Fc-scTL1A format; the mutations are written on each of the three TL1A units; also called Fc-scTL1A-AKALFF; Fc-scTL1A AKALFF; source: Expi293 cells, transfected, purified (mAbSelect SuRe); not shown: Fc (IgG1), N-terminal, kept
B3: TL1W327.001 (K111A L123K M158Y Q167A S187L E190F) (Fc fusion, human)
chain: B1 chain with E107F, F124N, E284F, F301N, E461F, F478N
notes: TL1A (TNFSF15), human, residues 84-251; first of three units; linker between TL1A units; second unit; third unit; combination mutant in the Fc-scTL1A format; the mutations are written on each of the three TL1A units; also called AKYALF190; source: Expi293 cells, transfected, purified (mAbSelect SuRe); not shown: Fc (IgG1), N-terminal, kept
B4: TL1W329.001 (K111A L123K M158Y Q167A E190F N207F) (Fc fusion, human)
chain: B1 chain with L104S, E107F, L281S, E284F, L458S, E461F
notes: as for B1
B5: His-TL1A (TL1W2) (ligand, human, UniProt O95150 1-251, looked up)
chain: VYAPLRADGDKPRAHLTVVRQTPTQHFKNQFPALHWEHELGLAFTKNRMNYTNKFLLIPESGDYFIYSQVTFRGMTSECSEIRQAGRPNKPDSITVVITKVTDSYPEPTQLLMGTKSVCEVGSNWFQPIYLGAMFSLQEGDKLMVNVSDISLVDYTKEDKTFFGAFLL
notes: TL1A (TNFSF15), human; C-terminal extracellular domain comprising the TNF homology domain; non-covalent trimer; also called wild-type TL1A; source: Expi293 cells, transfected, purified (Ni-NTA, preparative gel filtration)
B6: Fc-TL1A (TL1W3) (Fc fusion, human, UniProt O95150 1-251, looked up)
chain: B5 chain
notes: TL1A (TNFSF15), human; C-terminal extracellular domain comprising the TNF homology domain; 3:2 ratio of Fc:TL1A trimers; also called Fc-TL1A W3; source: Expi293 cells, transfected, purified (mAbSelect SuRe, preparative gel filtration); not shown: Fc (IgG1), N-terminal, kept
B7: HSA-TL1A (TL1W9) (ligand, human, UniProt O95150 1-251, looked up)
chain: B5 chain
notes: TL1A (TNFSF15), human; C-terminal extracellular domain comprising the TNF homology domain; ratio of HSA to TL1A trimer 3:1; source: Expi293 cells, transfected, purified (Ni-NTA, preparative gel filtration); not shown: HSA (human serum albumin), N-terminal, kept
B8: Recombinant DR3-Fc (Fc fusion, UniProt Q93038 25-199, looked up)
chain: QGGTRSPRCDCAGDFHKKIGLFCCRGCPAGHYLKAPCTEPCGNSTCLVCPQDTFLAWENHHNSECARCQACDEQASQVALENCSAVADTRCGCKPGWFVECQVSQCVSSSPFYCQPCLDCGALHRHTRLLCSRRDTDCGTCLPGFYEHGDGCVSCPTSTLGSCPERCAAVCGWRQ
notes: death receptor 3 (DR3); dimeric MW ~92 kDa as printed; the catalogue product is, as I recall, the human extracellular domain fused to human IgG1 Fc; also called death receptor 3; source: bought: R&D Systems, cat. # 943-D3

Positions count from the first letter of the chain named. Numbers in names are those of the source.

The data set “Recombinant DR3-Fc” concerns the target B8. In words: ELISA; DR3-Fc immobilised non-specifically on Maxisorp plates (overnight, 4 °C), casein block; TL1A added in 3-fold dilutions, overnight 4 °C; bound TL1A detected with polyclonal rabbit anti-human TL1A-biotin and streptavidin-HRP; concentrations normalised to TL1A trimers; triplicate. To be noted: both partners purified. (ELISA stands for enzyme-linked immunosorbent assay.)

Another data set deals with T1, DcR3 (TNFRSF6B) (UniProt O95407 30-300).
T1 construct: soluble decoy receptor DcR3 (TNFRSF6B); the catalogue product is, as I recall, an Fc chimera; the SPR methods name capture by goat anti-human-Fc; also called decoy receptor DcR3; recombinant DcR3 protein
T1 sequence (looked up): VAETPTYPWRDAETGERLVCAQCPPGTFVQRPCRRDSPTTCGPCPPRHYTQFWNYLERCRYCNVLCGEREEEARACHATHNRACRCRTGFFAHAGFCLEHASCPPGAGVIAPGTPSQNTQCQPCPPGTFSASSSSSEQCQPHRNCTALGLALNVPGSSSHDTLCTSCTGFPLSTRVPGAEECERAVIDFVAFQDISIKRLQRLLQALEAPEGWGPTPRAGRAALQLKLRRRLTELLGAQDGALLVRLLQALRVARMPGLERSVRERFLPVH
In words: ELISA; TL1A variants on DcR3; who was immobilised is not told for DcR3; triplicate. Conditions: both partners purified.

Data set [1] concerns the molecule itself. In words: SEC; preparative gel filtration after affinity capture, Sepax SRT-C SEC-300, 20 mM sodium phosphate pH 6.8; the main peak is taken as the target oligomer. On the technique in general: Size exclusion chromatography separates by hydrodynamic size, large species first.
The data set “His-TL1A (TL1W2)” deals with B5. Description: ELISA; reversed format: TL1A molecules immobilised, DR3 titrated. To be noted: both partners purified.
For the data set “Fc-TL1A (TL1W3)”, the target named is B6. The description is as above. Conditions: both partners purified.
For the data set “HSA-TL1A (TL1W9)”, the target named is B7. The data set is described as above. Conditions: both partners purified.

For B1, the half-maximal effective concentration (EC50) with Recombinant DR3-Fc was 8.8 nM.

Take B2: in the data set with Recombinant DR3-Fc, the concentration giving a half-maximal response (EC50) was 9 nM.

For the molecule B3, the EC50 in the data set with Recombinant DR3-Fc is 37.5 nM.

On to B4, for which the EC50 with Recombinant DR3-Fc amounted to 8.7 nM.

Take B5: the values for the half-maximal effective concentration (EC50) with DcR3 (TNFRSF6B) and with Recombinant DR3-Fc were 4.6 nM and 26.2 nM, respectively. Further, the “stoichiometry N” value in data set [1] is 3.

For the molecule B6, the “stoichiometry N” value in data set [1] turned out to be 6.

As for B7, the “stoichiometry N” value in data set [1] stood at 3.

Consider B8, for which the EC50 in the data set with His-TL1A (TL1W2) is 2.5 nM; with Fc-TL1A (TL1W3), 2.6 nM; in the data set with HSA-TL1A (TL1W9) it was more than 4000 nM.

Usually EC50 stands for the concentration giving half of the maximal effect. The term stoichiometry N denotes the number of molecules, sites or subunits per partner or assembly.

The record behind these values is article PMC9709071, “A stable, engineered TL1A ligand co-stimulates T cells via specific binding to DR3” (Scientific Reports, 2022).
